Laboratory results reported in article doi:10.1101/600387.

Target: Sulfolobus acidocaldarius R2-like ligand-binding oxidase (Sulfolobus acidocaldarius)
Test: crystal structure

stoichiometry N: 2
Substance: Sulfolobus acidocaldarius R2-like ligand-binding oxidase (enzyme)
